Patent publication US6348327
Changes are numbered by the printed parent chain.

T1: prorelaxin mutant Rx 2.4, P04090
T1 chain: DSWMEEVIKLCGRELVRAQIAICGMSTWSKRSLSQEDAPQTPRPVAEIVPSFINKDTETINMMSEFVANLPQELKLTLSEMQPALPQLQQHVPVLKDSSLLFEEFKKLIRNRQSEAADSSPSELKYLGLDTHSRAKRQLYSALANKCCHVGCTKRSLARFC

T2: prorelaxin mutant Rx 4.3, P04090
T2 chain: T1 chain with A135K, K136R, R137A

T3: prorelaxin mutant Rx 3.2, P04090
T3 chain: T1 chain with A135K, K136A

T4: prorelaxin mutant Rx8.6, P04090
T4 chain: T1 chain with R31A, A135K

T5: prorelaxin mutant Rx 1.4, P04090
T5 chain: T1 chain with R134V, A135K

T6: prorelaxin mutant Rx7.2, P04090
T6 chain: T1 chain with K30A, A135K

T7: human H2 prorelaxin (wild-type), P04090
T7 chain: T1 chain with A135K

B1: murine prohormone convertase 1 (protein)
chain: SVQKDSALDLFNDPMWNQQWYLQDTRMTAALPKLDLHVIPVWEKGITGKGVVITVLDDGLEWNHTDIYANYDPEASYDFNDNDHDPFPRYDLTNENKHGTRCAGEIAMQANNHKCGVGVAYNSKVGGIRMLDGIVTDAIEASSIGFNPGHVDIYSASWGPNDDGKTVEGPGRLAQKAFEYGVKQGRQGKGSIFVWASGNGGRQGDNCDCDGYTDSIYTISISSASQQGLSPWYAEKCSSTLATSYSSGDYTDQRITSADLHNDCTETHTGTSASAPLAAGIFALALEANPNLTWRDMQHLVVWTSEYDPLASNPGWKKNGAGLMVNSRFGFGLLNAKALVDLADPRTWRNVPEKKECVVKDNNFEPRALKANGEVIVEIPTRACEGQENAIKSLEHVQFEATIEYSRRGDLHVTLTSAVGTSTVLLAERERDTSPNGFKNWDFMSVHTWGENPVGTWTLKITDMSGRMQNEGRIVNWKLILHGTSSQPEHMKQPRVYTSYNTVQNDRRGVEKMVNVVEKRPTQKSLNGNLLVPKNSSSSNVEGRRDEQVQGTPSKAMLRLLQSAFSKNALSKQSPKKSPSAKLSIPYESFYEALEKLNKPSKLEGSEDSLYSDYVDVFYNTKPYKHRDDRLLQALMDILNEEN
B2: murine prohormone convertase 2 (protein)
chain: GYRDINEIDINMNDPLFTKQWYLFNTGQADGTPGLDLNVAEAWELGYTGKGVTIGIMDDGIDYLHPDLAYNYNADASYDFSSNDPYPYPRYTDDWFNSHGTRCAGEVSAAASNNICGVGVAYNSKVAGIRMLDQPFMTDIIEASSISHMPQLIDIYSASWGPTDNGKTVDGPRELTLQAMADGVNKGRGGKGSIYVWASGDGGSYDDCNCDGYASSMWTISINSAINDGRTALYDESCSSTLASTFSNGRKRNPEAGVATTDLYGNCTLRHSGTSAAAPEAAGVFALALEANLDLTWRDMQHLTVLTSKRNQLHDEVHQWRRNGVGLEFNHLFGYGVLDAGAMVKMAKDWKTVPERFHCVGGSVQNPEKIPPTGKLVLTLKTNACEGKENFVRYLEHVQAVITVNATRRGDLNINMTSPMGTKSILLSRRPRDDDSKVGFDKWPFMTTHTWGEDARGTWTLELGFVGSAPQKGLLKEWTLMLHGTQSAPYIDQVVRDYQSKLAMSKKQELEEELDEAVERSLQSILRKN

How the values were obtained:
[1] = molecular target: T1, prorelaxin mutant Rx 2.4, P04090
[2] = molecular target: T2, prorelaxin mutant Rx 4.3, P04090
[3] = molecular target: T3, prorelaxin mutant Rx 3.2, P04090
[4] = molecular target: T4, prorelaxin mutant Rx8.6, P04090
[5] = molecular target: T5, prorelaxin mutant Rx 1.4, P04090
[6] = molecular target: T6, prorelaxin mutant Rx7.2, P04090
[7] = molecular target: T7, human H2 prorelaxin (wild-type), P04090

Protein | processing of prorelaxin mutant by murine prohormone convertase 1 [1] | processing of prorelaxin mutant by murine prohormone convertase 1 [2] | processing of prorelaxin mutant by murine prohormone convertase 1 [3] | processing of prorelaxin mutant by murine prohormone convertase 1 [4] | processing of prorelaxin mutant by murine prohormone convertase 1 [5] | processing of prorelaxin mutant by murine prohormone convertase 1 [6] | cleavage of prorelaxin mutant by murine prohormone convertase 2 [1] | cleavage of prorelaxin mutant by murine prohormone convertase 2 [2] | cleavage of prorelaxin mutant by murine prohormone convertase 2 [3] | cleavage of prorelaxin mutant by murine prohormone convertase 2 [4] | cleavage of prorelaxin mutant by murine prohormone convertase 2 [5] | cleavage of prorelaxin mutant by murine prohormone convertase 2 [6] | cleavage of prorelaxin by murine prohormone convertase 2 [7]
B1 | Mutants 1.4 and 2.4 are processed the same as wild-type | Mutant 4.3 doesn't appear to be processed | mutant 3.2 is partially processed | mutants 7.2 and 8.6 are not processed | Mutants 1.4 and 2.4 are processed the same as wild-type | mutants 7.2 and 8.6 are not processed |  |  |  |  |  |  | 
B2 |  |  |  |  |  |  | does not cleave any of the prorelaxin mutants with the exception of 4.3 | with the exception of 4.3 where there is some processing | does not cleave any of the prorelaxin mutants with the exception of 4.3 | does not cleave any of the prorelaxin mutants with the exception of 4.3 | does not cleave any of the prorelaxin mutants with the exception of 4.3 | Mutant 7.2 is not cleaved by murine prohormone convertase 2 | Murine prohormone convertase 2 does not cleave the wildtype prorelaxin
